Source: publication PMC9826837
Where two headings read alike, the source gives them in different places.

What was measured:
[1] = biological target: rat cardiac troponin T (cTnT) (rat) (UniProt P50753); assay: SEC-MALS
[2] = biological target: Ser22/23 bisphosphorylated rat cardiac troponin complex (cTn-2P), Alexa647-labelled (rat) (UniProt Q4PP99); assay: MST
[3] = biological target: nonphosphorylated rat cardiac troponin complex (cTn-0P), Alexa647-labelled (rat) (UniProt Q4PP99); assay: MST
[4] = biological target: N-terminal lobe of cardiac troponin C (NcTnC), Alexa647-labelled; assay: MST
[5] = biological target: Ser22/23 bisphosphorylated rat cardiac troponin complex (cTn-2P), Alexa647-labelled (rat) (UniProt Q4PP99); assay: MST; remark: listed apart in the source
[6] = biological target: nonphosphorylated rat cardiac troponin complex (cTn-0P), Alexa647-labelled (rat) (UniProt Q4PP99); assay: MST; remark: listed apart in the source

stoichiometry N [1]	Kd [2] [µM]	Kd [3] [µM]	Kd [4] [µM]	Kd [5] [µM]	Kd [6] [µM]	Substance
1	–	–	–	–	–	rat cardiac troponin C (cTnC) (from UniProt Q4PP99 1-161) (natural protein)
–	20	20	5	20	20	nonphosphorylated N-terminal fragment of rat cMyBP-C encompassing domains C0, C1, m-motif and C2 (cC0C2-0P) (domain or fragment)
